The values below come from patent publication US12214076B2, “Drug delivery vehicles for atherosclerosis nanomedicine” (Northwestern University, priority 2019, dated 2025).

The nature of the series: TEM nanofiber length of ApoA1-Ac2-26 PA co-assemblies. It is filed as physicochemical. The note with it: aged at least 24 hours at 4° C.

Method: TEM: Conventional TEM images were taken on a FEI Tecnai T-12 TEM at 80 kV with a Gatan Orius® 2 k×2 k CCD camera. PAs at 1 mM in phosphate buffered saline (PBS) were prepared for TEM by pipetting 8 μL atop copper supports that were covered with thin carbon foil 400-mesh and treated with glow discharge. After two minutes, samples were rinsed with deionized water and stained with 2% uranyl acetate for two minutes before imaging. PA nanofiber length was quantified manually using Fiji open source image processing software.

“10% MMP-Ac2-26 PA: co-assembly of 10 mol % MMP-Ac2-26 PA, 50 mol % E2 filler PA, and 40% ApoA1 PA (VVAAEEGGGPQGIWGQGKAMVSEFLKQAWFIENEEQEYVQTVK)” displayed a median nanofiber length of 159 nm.
